This note sets out measurements from US9127040B2, “Regulation of sodium channels by PLUNC proteins” (The University of North Carolina at Chapel Hill, priority 2011, dated 2015).

Ends that are not written are not given here.

Assay [1] in a line: Urinary Na+ excretion (natriuresis) in anesthetized mice after intravenous infusion. In kind it is in vivo. Conditions: 250 nmol/g BW/h intravenous infusion, unconscious mice. Here is the method: To study the effects of SPLUNC1-derived peptides on the in vivo kidney, mice were anesthetized. After a baseline 45 min control clearance period, S18-type peptide or amiloride were infused intravenously over 30 min and the natriuretic response recorded over the subsequent 2-3 h.
Urinary Na^+ output was measured in unconscious mice (FIG. 32). Amiloride (38 nmol/g BW/h; ▪) and S18 (250 nmol/g BW/h; ▴) were added during the infusion period and urinary Na^+ excretion (UNaV) was measured throughout.

The subject of another assay is NL HBECs. Nature of the assay: ASL height by confocal microscopy in normal lung (NL) HBECs. In kind it is cell-based, human. The note with it: SPLUNC1 shRNA knockdown, 50 ng/ml rSPLUNC1 added to ASL. Here is the method:
To label airway surface liquid, Ringer containing Texas Red-dextran (2 mg/ml; Invitrogen) was added to human bronchial epithelial culture mucosal surfaces. Perfluorocarbon was added mucosally to prevent evaporation of the airway surface liquid and the culture placed in a chamber containing 100 μl Ringer on the stage of a Leica SP5 confocal microscope with a 63× glycerol immersion objective. 5 points per culture were scanned and an average airway surface liquid height determined. For confocal microscopy human bronchial epithelial cultures were bathed serosally in a modified Ringer solution containing (mM): 116 NaCl, 10 NaHCO3, 5.1 KCl, 1.2 CaCl2, 1.2 MgCl2, 20 TES, 10 glucose, pH 7.4). At all other times, human bronchial epithelial cultures were maintained in a modified BEGM growth medium which contained 24 mM NaHCO3 gassed with 5% CO2.
To label the ASL, PBS containing 10 kDa Rhodamine dextran (0.2-2 mg/mL; Invitrogen, Carlsbad, Calif., USA) was added to HBEC mucosal surfaces as previously described (Tarran et al., Mol. Cell 8:149 (2001)). When added, peptides with or without 100 nM neutrophil elastase, 1 U/mL aprotinin, activated neutrophil supernatant (ANS) (Haynes et al., Am. J. Physiol. Heart Circ. Physiol. 294:H379 (2008)) or 10 μM sivelestat (Sigma-Aldrich, St Louis, Mo., USA) were added to the mucosal surface along with the Rhodamine dextran. Bumetanide (100 μM) was added to the serosal solution.

As to GGLPVPLDQTLPLNVNPA [S18], the “urinary Na+ excretion (UNaV)” value in assay [1] is “induces natriuresis”.

B1: SPLUNC1: human SPLUNC1 (SEQ ID NO:1), 256 amino acid secreted PLUNC family protein; rSPLUNC1 is the purified V5/6His-tagged recombinant form (protein, listed as Homo sapiens)
chain: MFQTGGLIVFYGLLAQTMAQFGGLPVPLDQTLPLNVNPALPLSPTGLAGSLTNALSNGLLSGGLLGILENLPLLDILKPGGGTSGGLLGGLLGKVTSVIPGLNNIIDIKVTDPQLLELGLVQSPDGHRLYVTIPLGIKLQVNTPLVGASLLRLAVKLDITAEILAVRDKQERIHLVLGDCTHSPGSLQISLLDGLGPLPIQGLLDSLTGILNKVLPELVQGNVCPLVNEVLRGLDITLVHDIVNMLIHGLQFVIKV
modifications: V5/6His tag in recombinant form
notes: rSPLUNC1 is the purified V5/6His-tagged recombinant form
Turning to B1, the “regulation of airway surface liquid height in cultures lacking SPLUNC1” value is given as “restored” in the assay on NL HBECs and “sufficient to restore ASL volume regulation” in the assay with NL HBECs (listed as recombinant SPLUNC1).
